Changes are numbered by the printed parent chain.
T1: TGF-beta 3 (human, UniProt P10600 301-412)
T1 construct: Bought protein; also called TGF-β3
T1 sequence (looked up): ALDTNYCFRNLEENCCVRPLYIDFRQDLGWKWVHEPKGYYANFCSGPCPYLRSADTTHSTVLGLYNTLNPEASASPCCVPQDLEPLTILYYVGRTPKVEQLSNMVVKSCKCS

B1: mAb 21D1 (antibody, human IgG4 S228P, kappa, V domains shown)
VH: QVQLVQSGAEVKKPGASVKVSCKASGYTFTDYNIHWVRQAPGQGLEWMGYIYPYDGETGYNQKFKSRVTMTTDTSTSTAYMELRSLRSDDTAVYYCARGYRWFAYWGQGTLVTVSS
VL: DIQMTQSPSSLSASVGDRVTITCRASSSVPYMHWFQQKPGKAPKSLIYATSNPAYGVPSRFSGSGSGTDFTLTISSLQPEDFATYYCQQWDLNPPAFGQGTKLEIKR
notes: Full-length IgG4 antibody; also called LA307-21D1
B2: mAb DM4 (antibody, human IgG4 S228P, kappa, V domains shown)
VH: B1 VH with T28D, F103L
VL: B1 VL with P30S, F35Y, S45P, P53L
notes: Full-length IgG4 antibody; also called LA307-DM4
B3: mAb 23A3 (antibody, V domains shown)
VH: B1 VH with T28D, I34M, H35V, Y50S, W102A, A104E
VL: DIQMTQSPSSLSASVGDRVTITCRASSSVPYMHWYQQKPGKAPKLLIYATSNPAYGVPSRFSGSGSGTDFTLTISSLQPEDFATYYCQQWDLNPPAFGQGTKLEIK
B4: mAb DM7 (antibody, V domains shown)
VH: B1 VH with T28D, I34M, F103L, A104Y
VL: B3 VL with P30S, L45P, P53L, Y55K

The binders below were run against T1, TGF-beta 3 (assay: ratio of Biacore Kd for TGF-β3 to Kd for TGF-β1).
Experimental: Affinities of binding composition mAbs for TGF-β3 are determined using BIAcore methods. All measurements are performed at room temperature. Samples are dissolved in HBS-EP buffer (150 mM sodium chloride, 3 mM EDTA, 0.01% (w/v) surfactant P-20, and 10 mM HEPES, pH 7.4). Recombinant Protein A is immobilized on four flow cells of a CM4 sensor chip at a level of 400-450 response units (RUs) using an amine coupling kit. Binding is evaluated over multiple analytical cycles. Each cycle is performed at a flow rate of 100 μL/minute consisting of the following steps: injection of 15 μL of an antibody binding composition at 0.5 μg/mL, injection of 250 μL of TGF-β3 (starting at 5 nM and using two-fold serial dilutions to […] for each cycle, with two injections for each concentration) followed by a short (5 minutes) delay for dissociation, and regeneration using two injections of 50 μL of 10 mM glycine hydrochloride, pH 1.5.
Affinities are determined based upon the equilibrium signal as reached at varying TGF-β3 concentrations by measuring the average signal during the last 10 seconds of the TGF-β3 injections, and then fitting the resulting signals at all of the TGF-β3 concentrations to a simple binding equilibrium model in SCRUBBER (Center for Biomolecular Interaction Analysis, Univ. of Utah). Model data determined for tested human mab composition of the invention of Kd and specificity calculated by dividing the Kd for TGF-β3 binding by the Kd for TGF-β1 binding (herein) is shown below in Table 5.

Row | Binder | Specificity (Kd, β3/Kd, β1)
1 | B1 | 9800
2 | B2 | 621
3 | B3 | 1050
4 | B4 | 2320

From patent publication US20100040633A1 (published 2010)
